Earlier results in article PMC6018615.

Biological target: TNPO1 (Homo sapiens) (UniProt Q92973)
Sequence of UniProt Q92973 (Q92973 whole entry): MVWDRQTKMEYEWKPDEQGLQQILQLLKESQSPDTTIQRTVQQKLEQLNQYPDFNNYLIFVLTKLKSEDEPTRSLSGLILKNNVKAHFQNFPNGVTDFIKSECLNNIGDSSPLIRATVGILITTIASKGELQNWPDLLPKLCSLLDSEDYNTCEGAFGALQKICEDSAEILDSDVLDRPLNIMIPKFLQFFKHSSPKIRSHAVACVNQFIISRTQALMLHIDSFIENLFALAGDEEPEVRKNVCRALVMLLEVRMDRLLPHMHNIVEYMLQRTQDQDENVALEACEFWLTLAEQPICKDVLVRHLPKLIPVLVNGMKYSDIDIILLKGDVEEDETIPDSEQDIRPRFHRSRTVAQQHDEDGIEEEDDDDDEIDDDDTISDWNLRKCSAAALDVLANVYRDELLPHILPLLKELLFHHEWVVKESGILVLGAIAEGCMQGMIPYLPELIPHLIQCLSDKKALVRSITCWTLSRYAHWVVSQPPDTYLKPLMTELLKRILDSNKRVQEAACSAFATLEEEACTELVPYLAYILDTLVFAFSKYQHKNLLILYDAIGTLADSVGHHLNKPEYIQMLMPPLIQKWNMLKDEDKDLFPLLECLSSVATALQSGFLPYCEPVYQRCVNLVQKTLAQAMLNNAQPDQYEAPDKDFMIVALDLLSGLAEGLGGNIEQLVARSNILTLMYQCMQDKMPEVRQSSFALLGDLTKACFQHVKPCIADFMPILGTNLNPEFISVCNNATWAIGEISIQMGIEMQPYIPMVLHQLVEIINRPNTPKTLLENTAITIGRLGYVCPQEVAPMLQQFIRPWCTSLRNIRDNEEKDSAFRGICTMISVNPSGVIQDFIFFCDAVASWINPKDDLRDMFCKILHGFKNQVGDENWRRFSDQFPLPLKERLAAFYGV

Kd: 9.5 nM
Substance: FUS (from UniProt P35637)
